The labels stand for the following.
B1: Fluoroacetate dehalogenase (FAcD) wild type (enzyme, Rhodopseudomonas palustris, UniProt Q6NAM1 1-302, looked up)
chain: MPDLADLFPGFGSEWINTSSGRIFARVGGDGPPLLLLHGFPQTHVMWHRVAPKLAERFKVIVADLPGYGWSDMPESDEQHTPYTKRAMAKQLIEAMEQLGHVHFALAGHDRGARVSYRLALDSPGRLSKLAVLDILPTYEYWQRMNRAYALKIYHWSFLAQPAPLPENLLGGDPDFYVKAKLASWTRAGDLSAFDPRAVEHYRIAFADPMRRHVMCEDYRAGAYADFEHDKIDVEAGNKIPVPMLALWGASGIAQSAATPLDVWRKWASDVQGAPIESGHFLPEEAPDQTAEALVRFFSAAP
B2: Fluoroacetate dehalogenase (FAcD) Ser157Thr (enzyme, Rhodopseudomonas palustris, UniProt Q6NAM1 1-302, looked up)
chain: MPDLADLFPGFGSEWINTSSGRIFARVGGDGPPLLLLHGFPQTHVMWHRVAPKLAERFKVIVADLPGYGWSDMPESDEQHTPYTKRAMAKQLIEAMEQLGHVHFALAGHDRGARVSYRLALDSPGRLSKLAVLDILPTYEYWQRMNRAYALKIYHWTFLAQPAPLPENLLGGDPDFYVKAKLASWTRAGDLSAFDPRAVEHYRIAFADPMRRHVMCEDYRAGAYADFEHDKIDVEAGNKIPVPMLALWGASGIAQSAATPLDVWRKWASDVQGAPIESGHFLPEEAPDQTAEALVRFFSAAP
B3: Fluoroacetate dehalogenase (FAcD) Ser157Ala (enzyme, Rhodopseudomonas palustris, UniProt Q6NAM1 1-302, looked up)
chain: MPDLADLFPGFGSEWINTSSGRIFARVGGDGPPLLLLHGFPQTHVMWHRVAPKLAERFKVIVADLPGYGWSDMPESDEQHTPYTKRAMAKQLIEAMEQLGHVHFALAGHDRGARVSYRLALDSPGRLSKLAVLDILPTYEYWQRMNRAYALKIYHWAFLAQPAPLPENLLGGDPDFYVKAKLASWTRAGDLSAFDPRAVEHYRIAFADPMRRHVMCEDYRAGAYADFEHDKIDVEAGNKIPVPMLALWGASGIAQSAATPLDVWRKWASDVQGAPIESGHFLPEEAPDQTAEALVRFFSAAP

This data set concerns the molecule itself. Kind of data set: crystal structure.
With B1, the binding result is “binds”.
Under B2 stands “binds”; under B3, “binds”.
